Source: patent US20090197798A1 (NATIONAL TAIWAN UNIVERSITY, published 2009)
Bridges are numbered along the chain shown (N, C = ends). Where no end group is shown, it is not given here.

Tests used:
[1] = target: T1, Recombinant soluble NRP1 (sNRP1) protein containing His6 and c-Myc domain tags (human, UniProt O14786-2 22-644, limits assumed); assay: SPR
T1 construct: Expressed in NIH-3T3 cells, purified from conditioned medium by ammonium sulfate precipitation and Ni-NTA; also called recombinant human sNRP1; recombinant NRP1; not shown: His6 and c-Myc tags
T1 sequence (looked up): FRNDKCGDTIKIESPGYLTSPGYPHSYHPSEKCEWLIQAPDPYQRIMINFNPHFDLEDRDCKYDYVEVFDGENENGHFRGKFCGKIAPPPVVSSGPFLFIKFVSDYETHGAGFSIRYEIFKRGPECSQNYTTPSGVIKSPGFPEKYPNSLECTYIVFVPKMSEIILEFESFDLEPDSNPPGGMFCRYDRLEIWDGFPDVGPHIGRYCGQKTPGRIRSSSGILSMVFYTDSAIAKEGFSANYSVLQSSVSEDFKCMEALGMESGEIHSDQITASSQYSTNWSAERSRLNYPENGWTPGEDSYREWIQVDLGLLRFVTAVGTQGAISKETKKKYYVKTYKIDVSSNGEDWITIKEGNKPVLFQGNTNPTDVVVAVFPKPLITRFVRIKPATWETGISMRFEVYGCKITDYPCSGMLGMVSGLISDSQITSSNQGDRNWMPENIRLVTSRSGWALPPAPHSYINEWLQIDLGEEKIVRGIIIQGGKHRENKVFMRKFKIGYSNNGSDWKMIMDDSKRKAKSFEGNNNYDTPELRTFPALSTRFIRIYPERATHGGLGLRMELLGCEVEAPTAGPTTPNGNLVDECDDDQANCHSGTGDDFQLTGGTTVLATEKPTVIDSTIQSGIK

VEGFR2 = target: T2, VEGFR2 (UniProt P35968 20-764, limits assumed); assay: SPR (Biacore), receptor immobilized on sensor chip
T2 construct: also called Flk-1/KDR
T2 sequence (P35968 20-764 limits assumed): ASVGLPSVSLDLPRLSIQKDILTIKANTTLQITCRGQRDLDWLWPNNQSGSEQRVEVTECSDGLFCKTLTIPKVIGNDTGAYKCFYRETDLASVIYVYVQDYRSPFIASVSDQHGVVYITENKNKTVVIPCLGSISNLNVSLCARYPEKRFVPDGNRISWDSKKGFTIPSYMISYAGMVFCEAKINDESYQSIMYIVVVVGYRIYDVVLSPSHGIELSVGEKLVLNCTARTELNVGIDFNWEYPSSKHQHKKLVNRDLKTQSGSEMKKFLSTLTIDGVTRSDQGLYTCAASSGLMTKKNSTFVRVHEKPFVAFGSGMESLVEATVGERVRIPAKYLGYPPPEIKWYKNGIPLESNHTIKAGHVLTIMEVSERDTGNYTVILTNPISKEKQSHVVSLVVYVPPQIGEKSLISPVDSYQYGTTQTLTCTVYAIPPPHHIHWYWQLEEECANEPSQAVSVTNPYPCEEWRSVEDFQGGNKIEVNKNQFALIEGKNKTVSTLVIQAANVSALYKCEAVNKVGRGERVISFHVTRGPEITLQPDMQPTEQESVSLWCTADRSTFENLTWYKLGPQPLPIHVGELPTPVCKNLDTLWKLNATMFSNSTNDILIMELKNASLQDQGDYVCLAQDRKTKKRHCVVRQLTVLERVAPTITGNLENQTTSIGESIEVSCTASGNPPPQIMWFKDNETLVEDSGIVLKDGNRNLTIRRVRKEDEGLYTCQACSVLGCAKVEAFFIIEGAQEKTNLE

[2] = target: T1, Recombinant soluble NRP1 (sNRP1) …; assay: SPR (Biacore), NRP1 immobilized on CM5 chip, peptide injected, 25 C
Procedure: The binding kinetics of selected peptides with NRP1 were tested using the surface plasmon resonance based measuring system (Biacore AB) at 25° C. Recombinant NRP1 was immobilized on CM5 sensor chips by amine coupling at 400 response units using the amine coupling kit (Biacore) according to the manufacturer's instructions. Binding was detected in resonance units after injecting various concentrations of peptide at a flow rate of 30 μL/min. Sensograms of association and dissociation were recorded and analyzed using BIAevaluation software 3.0 (Biacore AB).
To identify whether any new signature motif can bind and inhibit NRP1-mediated invasion, mammalian cell-expressed NRP1 proteins were used as bait to screen a random cyclic 7-mer peptide library for NRP1-binding peptides. A Ph.D. C7C phage display library containing 10¹¹ random cyclic 7-amino acid peptides was applied for biopanning. After four rounds of screening, 63 clones were isolated. […] A consensus motif, -RRXR-, was found in nine clones by MULTALIN program alignment (Table 3). […] Surface plasmon resonance was used to measure the real-time association and dissociation of the binding of RRXR-containing peptides to NRP1. […] The slightly higher binding affinity of DG1 to NRP1 was due to a more favorable kₐ.

B1: Human VEGF165 (ligand, UniProt P15692-4 27-191, looked up)
chain: APMAEGGGQNHHEVVKFMDVYQRSYCHPIETLVDIFQEYPDEIEYIFKPSCVPLMRCGGCCNDEGLECVPTEESNITMQIMRIKPHQGQHIGEMSFLQHNKCECRPKKDRARQENPCGPCSERRKHLFVQDPQTCKCSCKNTDSRCKARQLELNERTCRCDKPRR
notes: Bought from PeproTech; also called hVEGF
**Q.** For B1, which Kd [1] is on record?
**A.** 125 nM

B2: cyclic peptide DG1 (CRRPRMLTC) (peptide)
peptide: CRRPRMLTC
modifications: disulfide 1-9 (inferred)
notes: Chemically synthesized cyclic 9-mer (Digitalgene, Taiwan); Its core matches phage clone 4-1
**Q.** Does B2 bind (VEGFR2)?
**A.** no binding

**Q.** What about the Kd [2] of the same binder?
**A.** 1400 nM

**Q.** And the koff [2]?
**A.** 0.00172 s⁻¹

**Q.** And the kon [2]?
**A.** 1230 M⁻¹ s⁻¹

B3: cyclic peptide DG2 (CRSRRIRLC) (peptide)
peptide: CRSRRIRLC
modifications: disulfide 1-9 (inferred)
notes: Chemically synthesized cyclic 9-mer (Digitalgene, Taiwan); Its core matches phage clone 4-5
**Q.** Does B3 bind (VEGFR2)?
**A.** no binding

**Q.** What about the Kd [2] of the same binder?
**A.** 5370 nM

**Q.** And the koff [2]?
**A.** 0.000663 s⁻¹

**Q.** And the kon [2]?
**A.** 123 M⁻¹ s⁻¹
